Experiment: GEN1046 in combination with docetaxel in metastatic NSCLC subjects, adverse effects
Type: in vivo, human
Method: Docetaxel was administered at a dose of 55 mg/m^2 or 75 mg/m^2 depending on the number of prior Dose Limiting Toxicities observed. The maximum tested dose of docetaxel was be 75 mg/m^2.
Subjects with a histological or cytological diagnosis of non-squamous NSCLC must not have an EGFR-sensitizing mutation and/or ALK translocation/ROS1 rearrangement. EGFR sensitizing mutations are those mutations that are amenable to treatment with an approved TKI. Documentation of EGFR and ALK status should be available per local assessment.

[1] = GEN1046 in combination with Docetaxel

GEN1046: PD-L1×4-1BB bispecific antibody: PD-L1-547-FEAL combined with CD137-009-HC7LC2-FEAR (SEQ ID NOs: 1, 5, 21, 19; 8, 12, 22, 20)
No Dose Limiting Toxicity reported: Dose Limiting Toxicity (with Docetaxel 55 mg/m^2 or 75 mg/m^2)
None reported: Immune-related toxicities [1]
4: Total treated subjects with related TEAEs Grade 1, GEN1046-related (GEN1046 + 75 mg/m^2 Docetaxel) | Total treated subjects with related TEAEs Grade 2, GEN1046-related (GEN1046 + 75 mg/m^2 Docetaxel)
2: Dyspnea Grade 2, GEN1046-related (GEN1046 + 75 mg/m^2 Docetaxel) | Fatigue Grade 2, GEN1046-related (GEN1046 + 75 mg/m^2 Docetaxel) | Total treated subjects with related TEAEs Grade 3, GEN1046-related (GEN1046 + 75 mg/m^2 Docetaxel)
No reported drug-related hepatoxicities: Hepatotoxicity [1]
No serious adverse events: Serious adverse events related to GEN1046 (dose limiting toxicity period, in combination with Docetaxel)
1: Blood thyroid stimulating hormone abnormal Grade 1, GEN1046-related (GEN1046 + 75 mg/m^2 Docetaxel) | Cough Grade 1, GEN1046-related (GEN1046 + 75 mg/m^2 Docetaxel) | Dry mouth Grade 1, GEN1046-related (GEN1046 + 75 mg/m^2 Docetaxel) | Dyspnea Grade 1, GEN1046-related (GEN1046 + 75 mg/m^2 Docetaxel) | Fatigue Grade 1, GEN1046-related (GEN1046 + 75 mg/m^2 Docetaxel) | Gastroesophageal reflux disease Grade 1, GEN1046-related (GEN1046 + 75 mg/m^2 Docetaxel) | Hiccups Grade 2, GEN1046-related (GEN1046 + 75 mg/m^2 Docetaxel) | Hyperglycemia Grade 1, GEN1046-related (GEN1046 + 75 mg/m^2 Docetaxel) | Hyperglycemia Grade 3, GEN1046-related (GEN1046 + 75 mg/m^2 Docetaxel) | Lipase increased Grade 2, GEN1046-related (GEN1046 + 75 mg/m^2 Docetaxel) | Musculoskeletal chest pain Grade 2, GEN1046-related (GEN1046 + 75 mg/m^2 Docetaxel) | Nausea Grade 2, GEN1046-related (GEN1046 + 75 mg/m^2 Docetaxel) | Neutrophil count decreased Grade 4, GEN1046-related (GEN1046 + 75 mg/m^2 Docetaxel) | Palmar plantar erythrodysesthesia Syndrome (PPE) Grade 1, GEN1046-related (GEN1046 + 75 mg/m^2 Docetaxel) | Pruritus Grade 1, GEN1046-related (GEN1046 + 75 mg/m^2 Docetaxel) | Total treated subjects with related TEAEs Grade 4, GEN1046-related (GEN1046 + 75 mg/m^2 Docetaxel) | Vomiting Grade 1, GEN1046-related (GEN1046 + 75 mg/m^2 Docetaxel)
0: Anemia Grade 5, GEN1046-related (GEN1046 + 75 mg/m^2 Docetaxel) | Blood thyroid stimulating hormone abnormal Grade 2, GEN1046-related (GEN1046 + 75 mg/m^2 Docetaxel) | Blood thyroid stimulating hormone abnormal Grade 3, GEN1046-related (GEN1046 + 75 mg/m^2 Docetaxel) | Blood thyroid stimulating hormone abnormal Grade 4, GEN1046-related (GEN1046 + 75 mg/m^2 Docetaxel) | Blood thyroid stimulating hormone abnormal Grade 5, GEN1046-related (GEN1046 + 75 mg/m^2 Docetaxel) | Cough Grade 2, GEN1046-related (GEN1046 + 75 mg/m^2 Docetaxel) | Cough Grade 3, GEN1046-related (GEN1046 + 75 mg/m^2 Docetaxel) | Cough Grade 4, GEN1046-related (GEN1046 + 75 mg/m^2 Docetaxel) | Cough Grade 5, GEN1046-related (GEN1046 + 75 mg/m^2 Docetaxel) | Dry mouth Grade 2, GEN1046-related (GEN1046 + 75 mg/m^2 Docetaxel) | Dry mouth Grade 3, GEN1046-related (GEN1046 + 75 mg/m^2 Docetaxel) | Dry mouth Grade 4, GEN1046-related (GEN1046 + 75 mg/m^2 Docetaxel) | Dry mouth Grade 5, GEN1046-related (GEN1046 + 75 mg/m^2 Docetaxel) | Dyspnea Grade 3, GEN1046-related (GEN1046 + 75 mg/m^2 Docetaxel) | Dyspnea Grade 4, GEN1046-related (GEN1046 + 75 mg/m^2 Docetaxel) | Dyspnea Grade 5, GEN1046-related (GEN1046 + 75 mg/m^2 Docetaxel) | Fatigue Grade 3, GEN1046-related (GEN1046 + 75 mg/m^2 Docetaxel) | Fatigue Grade 4, GEN1046-related (GEN1046 + 75 mg/m^2 Docetaxel) | Fatigue Grade 5, GEN1046-related (GEN1046 + 75 mg/m^2 Docetaxel) | Gastroesophageal reflux disease Grade 2, GEN1046-related (GEN1046 + 75 mg/m^2 Docetaxel) | Gastroesophageal reflux disease Grade 3, GEN1046-related (GEN1046 + 75 mg/m^2 Docetaxel) | Gastroesophageal reflux disease Grade 4, GEN1046-related (GEN1046 + 75 mg/m^2 Docetaxel) | Gastroesophageal reflux disease Grade 5, GEN1046-related (GEN1046 + 75 mg/m^2 Docetaxel) | Hiccups Grade 1, GEN1046-related (GEN1046 + 75 mg/m^2 Docetaxel) | Hiccups Grade 3, GEN1046-related (GEN1046 + 75 mg/m^2 Docetaxel) | Hiccups Grade 4, GEN1046-related (GEN1046 + 75 mg/m^2 Docetaxel) | Hiccups Grade 5, GEN1046-related (GEN1046 + 75 mg/m^2 Docetaxel) | Hyperglycemia Grade 2, GEN1046-related (GEN1046 + 75 mg/m^2 Docetaxel) | Hyperglycemia Grade 4, GEN1046-related (GEN1046 + 75 mg/m^2 Docetaxel) | Hyperglycemia Grade 5, GEN1046-related (GEN1046 + 75 mg/m^2 Docetaxel) | Lipase increased Grade 1, GEN1046-related (GEN1046 + 75 mg/m^2 Docetaxel) | Lipase increased Grade 3, GEN1046-related (GEN1046 + 75 mg/m^2 Docetaxel) | Lipase increased Grade 4, GEN1046-related (GEN1046 + 75 mg/m^2 Docetaxel) | Lipase increased Grade 5, GEN1046-related (GEN1046 + 75 mg/m^2 Docetaxel) | Musculoskeletal chest pain Grade 1, GEN1046-related (GEN1046 + 75 mg/m^2 Docetaxel) | Musculoskeletal chest pain Grade 3, GEN1046-related (GEN1046 + 75 mg/m^2 Docetaxel) | Musculoskeletal chest pain Grade 4, GEN1046-related (GEN1046 + 75 mg/m^2 Docetaxel) | Musculoskeletal chest pain Grade 5, GEN1046-related (GEN1046 + 75 mg/m^2 Docetaxel) | Nausea Grade 1, GEN1046-related (GEN1046 + 75 mg/m^2 Docetaxel) | Nausea Grade 3, GEN1046-related (GEN1046 + 75 mg/m^2 Docetaxel) | Nausea Grade 4, GEN1046-related (GEN1046 + 75 mg/m^2 Docetaxel) | Nausea Grade 5, GEN1046-related (GEN1046 + 75 mg/m^2 Docetaxel) | Neutrophil count decreased Grade 1, GEN1046-related (GEN1046 + 75 mg/m^2 Docetaxel) | Neutrophil count decreased Grade 2, GEN1046-related (GEN1046 + 75 mg/m^2 Docetaxel) | Neutrophil count decreased Grade 3, GEN1046-related (GEN1046 + 75 mg/m^2 Docetaxel) | Neutrophil count decreased Grade 5, GEN1046-related (GEN1046 + 75 mg/m^2 Docetaxel) | Palmar plantar erythrodysesthesia Syndrome (PPE) Grade 2, GEN1046-related (GEN1046 + 75 mg/m^2 Docetaxel) | Palmar plantar erythrodysesthesia Syndrome (PPE) Grade 3, GEN1046-related (GEN1046 + 75 mg/m^2 Docetaxel) | Palmar plantar erythrodysesthesia Syndrome (PPE) Grade 4, GEN1046-related (GEN1046 + 75 mg/m^2 Docetaxel) | Palmar plantar erythrodysesthesia Syndrome (PPE) Grade 5, GEN1046-related (GEN1046 + 75 mg/m^2 Docetaxel) | Pruritus Grade 2, GEN1046-related (GEN1046 + 75 mg/m^2 Docetaxel) | Pruritus Grade 3, GEN1046-related (GEN1046 + 75 mg/m^2 Docetaxel) | Pruritus Grade 4, GEN1046-related (GEN1046 + 75 mg/m^2 Docetaxel) | Pruritus Grade 5, GEN1046-related (GEN1046 + 75 mg/m^2 Docetaxel) | Total treated subjects with related TEAEs Grade 5, GEN1046-related (GEN1046 + 75 mg/m^2 Docetaxel) | Vomiting Grade 2, GEN1046-related (GEN1046 + 75 mg/m^2 Docetaxel) | Vomiting Grade 3, GEN1046-related (GEN1046 + 75 mg/m^2 Docetaxel) | Vomiting Grade 4, GEN1046-related (GEN1046 + 75 mg/m^2 Docetaxel) | Vomiting Grade 5, GEN1046-related (GEN1046 + 75 mg/m^2 Docetaxel)
